This passage reports Km, kcat and kcat/Km results from PMC3103430, “RecA Proteins from Deinococcus geothermalis and Deinococcus murrayi - Cloning, Purification and Biochemical Characterisation” (BMC Molecular Biology, 2011).

Substrate in series [1]: Nc1ncnc2c1ncn2[C@@H]1O[C@H](COP(=O)(O)OP(=O)(O)OP(=O)(O)O)[C@@H](O)[C@H]1O
Nature of the series: purified protein. The note with it: ssDNA-dependent (80-nt oligonucleotide, 12.16 μM nucleotides), 11.56 mM MgCl2, 20 mM Tris-HCl pH 7.5, 37 °C, Hill fit, n 1.1. The format is biochemical, Deinococcus murrayi.

Substrate in series [2]: Nc1ncnc2c1ncn2[C@H]1C[C@H](O)[C@@H](COP(=O)(O)OP(=O)(O)OP(=O)(O)O)O1
Nature of the series: purified protein. The format is biochemical, Deinococcus murrayi. Particulars: ssDNA-dependent (80-nt oligonucleotide, 12.16 μM nucleotides), 11.56 mM MgCl2, 20 mM Tris-HCl pH 7.5, 37 °C, Hill fit, n 1.0.

B1: DmuRecA (Deinococcus murrayi) (protein)
chain: MSKDNPKDFGTPSDSKERLKAIETAMTQIEKAFGKGSIMRLGAESKLDVQAVSTGSLSLDLALGVGGIPRGRITEIYGPESGGKTTLALSVIAQAQKAGGTCAFIDAEHALDPVYARSLGVNTDELLVSQPDNGEQRLEIMELLVRSGAIDVVVVDSVAALTPRAEIEGEMGDSLPGLQARLMSQALRKLTAILSKTGTAAIFINQVREKIGVMYGNPETTTGGRALKFYASVRLDVRKIGQPVKMGNDAVGNTVKVKTVKNKVAPPFKEVELTLMYGKGFDQLSDLVTLASDMDIIKKAGSFYSYGEDRLGQGKEKAIAYIAERPELEAEIRERVLSAIKEGRAGDVPGVASVPAVAE
notes: heterogeneous oligomers
As for B1, in “purified protein [1]”, the Michaelis constant (Km) – broadly, the substrate concentration at which the rate is half of its maximum – is listed as 0.31 ± 0.009 mM; the turnover number (kcat) – broadly, the maximal rate divided by the concentration of active sites – came out at 0.13 ± 0.004 s⁻¹; the kcat/Km (in general, the turnover number divided by the Michaelis constant) was found to be 430 ± 18 M⁻¹ s⁻¹. Further, in the series “purified protein [2]”, the Michaelis-Menten constant (Km) is 0.28 ± 0.007 mM, the kcat amounted to 0.14 ± 0.004 s⁻¹ and the kcat/Km was determined as 500 ± 25 M⁻¹ s⁻¹.
